Test results: patent US20230174642A1, “AFFINITY-MATURATED ANTI-ASIC1a ANTIBODIES” (SHANGHAITECH UNIVERSITY, priority 2019, published 2023)

B1: ASC06-03-IgG1 (antibody, V domains shown)
VH: QVQLQQSGGGLVQPGGSLRLSCAASGFTFSSYAMSWVRQAPGKGLEWVSAISGSGGSTYYADSVKGRFTISRDNSKNTLYLQMNSLRAEDTAVYYCAKDSFYGRAKGSWGQGTLVTVSS
VL: QSALTQPASVSGSPGQSITISCTGTSSDVGAYNYVSWYQQQPGKAPKLMIYGVSNRPSGVSNRFSGSKSGNAASLTISGLQAEDEADYYCSSYTSSSTYVFGTGTKLTVLG
notes: Full length IgG1
B2: ASC06-IgG1: parental (WT) ASIC1a-specific antagonist antibody; VL SEQ ID NO: 2, VH SEQ ID NO: 7, VH-CDR3 DSFYGYSKGD (antibody, V domains shown)
VH: QVQLQQSGGGLVQPGGSLRLSCAASGFTFSSYAMSWVRQAPGKGLEWVSAISGSGGSTYYADSVKGRFTISRDNSKNTLYLQMNSLRAEDTAVYYCAKDSFYGYSKGDWGQGTLVTVSS
VL: QSALTQPASVSGSPGQSITISCTGTSSDVGAYNYVSWYQQQPGKAPKLMIYGVSNRPSGVSNRFSGSKSGNAASLTISGLQAEDEADYYCSSYTSSSTYVFGTGTKLTVLG
modifications: IgG1 constant regions; Amino acid sequence VH of ASC06; Amino acid sequence VL of ASC06
B3: ASC06-01-IgG1: affinity-matured ASC06 derivative, VH-CDR3 DSYFGYSKGD (SEQ ID NO: 11) (antibody, V domains shown)
VH: QVQLQQSGGGLVQPGGSLRLSCAASGFTFSSYAMSWVRQAPGKGLEWVSAISGSGGSTYYADSVKGRFTISRDNSKNTLYLQMNSLRAEDTAVYYCAKDSYFGYSKGDWGQGTLVTVSS
VL: QSALTQPASVSGSPGQSITISCTGTSSDVGAYNYVSWYQQQPGKAPKLMIYGVSNRPSGVSNRFSGSKSGNAASLTISGLQAEDEADYYCSSYTSSSTYVFGTGTKLTVLG
B4: ASC06-03-IgG1: affinity-matured ASC06 derivative, VH-CDR3 DSFYGRAKGS (SEQ ID NO: 15) (antibody, V domains shown)
VH: QVQLQQSGGGLVQPGGSLRLSCAASGFTFSSYAMSWVRQAPGKGLEWVSAISGSGGSTYYADSVKGRFTISRDNSKNTLYLQMNSLRAEDTAVYYCAKDSFYGRAKGSWGQGTLVTVSS
VL: QSALTQPASVSGSPGQSITISCTGTSSDVGAYNYVSWYQQQPGKAPKLMIYGVSNRPSGVSNRFSGSKSGNAASLTISGLQAEDEADYYCSSYTSSSTYVFGTGTKLTVLG
B5: ASC06-04-IgG1: affinity-matured ASC06 derivative, VH-CDR3 DSFYGRAKGV (SEQ ID NO: 17) (antibody, V domains shown)
VH: QVQLQQSGGGLVQPGGSLRLSCAASGFTFSSYAMSWVRQAPGKGLEWVSAISGSGGSTYYADSVKGRFTISRDNSKNTLYLQMNSLRAEDTAVYYCAKDSFYGRAKGVWGQGTLVTVSS
VL: QSALTQPASVSGSPGQSITISCTGTSSDVGAYNYVSWYQQQPGKAPKLMIYGVSNRPSGVSNRFSGSKSGNAASLTISGLQAEDEADYYCSSYTSSSTYVFGTGTKLTVLG
B6: ASC06-02-IgG1: affinity-matured ASC06 derivative, VH-CDR3 DSFFGRAKGS (SEQ ID NO: 13) (antibody, V domains shown)
VH: QVQLQQSGGGLVQPGGSLRLSCAASGFTFSSYAMSWVRQAPGKGLEWVSAISGSGGSTYYADSVKGRFTISRDNSKNTLYLQMNSLRAEDTAVYYCAKDSFFGRAKGSWGQGTLVTVSS
VL: QSALTQPASVSGSPGQSITISCTGTSSDVGAYNYVSWYQQQPGKAPKLMIYGVSNRPSGVSNRFSGSKSGNAASLTISGLQAEDEADYYCSSYTSSSTYVFGTGTKLTVLG
B7: ASC06-04-IgG1 (antibody, V domains shown)
VH: QVQLQQSGGGLVQPGGSLRLSCAASGFTFSSYAMSWVRQAPGKGLEWVSAISGSGGSTYYADSVKGRFTISRDNSKNTLYLQMNSLRAEDTAVYYCAKDSFYGRAKGVWGQGTLVTVSS
VL: QSALTQPASVSGSPGQSITISCTGTSSDVGAYNYVSWYQQQPGKAPKLMIYGVSNRPSGVSNRFSGSKSGNAASLTISGLQAEDEADYYCSSYTSSSTYVFGTGTKLTVLG
notes: Full length IgG1
B8: ASC06-01-IgG1 (antibody, V domains shown)
VH: QVQLQQSGGGLVQPGGSLRLSCAASGFTFSSYAMSWVRQAPGKGLEWVSAISGSGGSTYYADSVKGRFTISRDNSKNTLYLQMNSLRAEDTAVYYCAKDSYFGYSKGDWGQGTLVTVSS
VL: QSALTQPASVSGSPGQSITISCTGTSSDVGAYNYVSWYQQQPGKAPKLMIYGVSNRPSGVSNRFSGSKSGNAASLTISGLQAEDEADYYCSSYTSSSTYVFGTGTKLTVLG
notes: Full length IgG1

Tests used:
[1] = molecular target: T1, hASIC1a-mCherry fusion on a stable cell line (human, UniProt P78348 1-528); test: cell-based or functional assay
T1 sequence (looked up): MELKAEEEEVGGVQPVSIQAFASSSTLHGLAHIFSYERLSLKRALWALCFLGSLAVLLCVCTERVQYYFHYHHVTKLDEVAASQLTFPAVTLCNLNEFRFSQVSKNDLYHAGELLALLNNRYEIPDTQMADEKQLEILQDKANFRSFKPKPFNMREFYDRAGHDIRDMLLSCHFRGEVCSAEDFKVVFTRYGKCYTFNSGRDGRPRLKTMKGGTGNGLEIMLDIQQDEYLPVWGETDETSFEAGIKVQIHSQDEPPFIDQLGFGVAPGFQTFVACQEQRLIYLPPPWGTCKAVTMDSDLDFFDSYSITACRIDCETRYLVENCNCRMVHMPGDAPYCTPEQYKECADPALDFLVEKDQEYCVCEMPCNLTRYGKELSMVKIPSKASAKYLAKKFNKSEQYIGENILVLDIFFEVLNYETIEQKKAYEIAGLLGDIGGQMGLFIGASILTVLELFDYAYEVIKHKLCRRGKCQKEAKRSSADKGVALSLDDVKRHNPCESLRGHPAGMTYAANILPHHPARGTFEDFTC

[2] = molecular target: T2, rat ASIC1a-eYFP (rASIC1a-eYFP) on transiently transfected CHO-K1 cells (rat, UniProt P55926 1-526); test: FACS on transiently transfected CHO-K1 cells
T2 construct: whole, on cells; not shown: eYFP fusion partner
T2 sequence (looked up): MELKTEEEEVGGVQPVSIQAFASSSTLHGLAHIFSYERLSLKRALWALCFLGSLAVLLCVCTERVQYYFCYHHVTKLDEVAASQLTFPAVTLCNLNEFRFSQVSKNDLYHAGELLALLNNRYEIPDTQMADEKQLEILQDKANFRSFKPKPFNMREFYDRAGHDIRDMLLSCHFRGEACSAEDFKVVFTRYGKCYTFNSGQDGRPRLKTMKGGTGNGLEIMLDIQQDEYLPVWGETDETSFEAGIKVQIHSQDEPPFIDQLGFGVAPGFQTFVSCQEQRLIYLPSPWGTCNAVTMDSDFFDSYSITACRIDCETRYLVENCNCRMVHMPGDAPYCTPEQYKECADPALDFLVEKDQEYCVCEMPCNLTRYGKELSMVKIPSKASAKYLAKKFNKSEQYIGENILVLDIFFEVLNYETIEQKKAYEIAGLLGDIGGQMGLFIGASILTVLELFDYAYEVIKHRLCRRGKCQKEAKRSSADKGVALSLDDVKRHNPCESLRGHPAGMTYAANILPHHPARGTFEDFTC
Description: (§1) To investigate the species selectivity of ASC06-IgG1 affinity-matured antibodies, plasmids encoding fusion proteins of eYFP with […] homologs of ASIC1a were constructed. These plasmids included those encoding human ASIC1a (hASIC1a-eYFP), mouse ASIC1a (mASIC1a-eYFP), and rat ASIC1a (rASIC1a-eYFP). CHO-K1 cells were transiently transfected with the ASIC1a-eYFP plasmids, and a fluorescence activated cell sorting (FACS)-based binding assay was carried out to determine binding to the homologs or isoforms of ASIC1a expressed on the cell surface. An isotype control was used as a negative control for binding (NC). ASC06-IgG1 was used as a positive control. Summarily, the CHO-K1 cells expressing the ASIC1a-eYFP (green) homologs were stained with the indicated antibody (red) and subjected to FACS.
(§2) To examine the ASIC isotype selectivity of ASC06-IgG1 affinity-matured antibodies, plasmids encoding fusion proteins of eYFP with isoforms of […] were constructed. These plasmids included those encoding human ASIC1b (hASIC1b-eYFP), human ASIC2a (hASIC2a-eYFP), and human ASIC3a (hASIC3a-eYFP). CHO-K1 cells were transiently transfected with these plasmids and used in a FACS-based binding assay disclosed herein. Binding of ASC06-IgG1 to CHO-K1 cells expressing human ASIC1a-eYFP (hASIC1a-eYFP) was used as a positive control (data not shown and FIG. 2), and an isotype control was used as a negative control for binding (NC).

[3] = molecular target: T3, mouse ASIC1a-eYFP (mASIC1a-eYFP) on transiently transfected CHO-K1 cells (mouse, UniProt Q6NXK8 1-526); test: FACS on transiently transfected CHO-K1 cells
T3 construct: whole, on cells; not shown: eYFP fusion partner
T3 sequence (looked up): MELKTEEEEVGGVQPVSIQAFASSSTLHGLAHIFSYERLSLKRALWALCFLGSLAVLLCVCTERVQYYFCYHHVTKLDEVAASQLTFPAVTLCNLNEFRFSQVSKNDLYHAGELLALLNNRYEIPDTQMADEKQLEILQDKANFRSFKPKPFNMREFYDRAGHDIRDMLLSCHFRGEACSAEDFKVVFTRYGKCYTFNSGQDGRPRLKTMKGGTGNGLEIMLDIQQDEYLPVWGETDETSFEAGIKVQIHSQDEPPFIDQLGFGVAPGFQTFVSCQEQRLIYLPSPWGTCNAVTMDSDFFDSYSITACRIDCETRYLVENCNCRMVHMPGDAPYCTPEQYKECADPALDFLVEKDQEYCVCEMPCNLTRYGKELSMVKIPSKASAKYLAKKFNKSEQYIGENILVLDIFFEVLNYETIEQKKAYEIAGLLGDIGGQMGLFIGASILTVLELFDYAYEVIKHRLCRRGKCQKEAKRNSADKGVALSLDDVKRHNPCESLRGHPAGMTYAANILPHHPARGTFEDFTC
Description: as §1, §2

[4] = molecular target: T4, human ASIC3a (hASIC3a-eYFP) (Homo sapiens, UniProt Q9UHC3); test: FACS-based binding assay, transiently transfected CHO-K1 cells (isotype selectivity)
T4 construct: expressed in transfected cells; host or cells: CHO-K1 (transient)
T4 sequence (Q9UHC3 1-531): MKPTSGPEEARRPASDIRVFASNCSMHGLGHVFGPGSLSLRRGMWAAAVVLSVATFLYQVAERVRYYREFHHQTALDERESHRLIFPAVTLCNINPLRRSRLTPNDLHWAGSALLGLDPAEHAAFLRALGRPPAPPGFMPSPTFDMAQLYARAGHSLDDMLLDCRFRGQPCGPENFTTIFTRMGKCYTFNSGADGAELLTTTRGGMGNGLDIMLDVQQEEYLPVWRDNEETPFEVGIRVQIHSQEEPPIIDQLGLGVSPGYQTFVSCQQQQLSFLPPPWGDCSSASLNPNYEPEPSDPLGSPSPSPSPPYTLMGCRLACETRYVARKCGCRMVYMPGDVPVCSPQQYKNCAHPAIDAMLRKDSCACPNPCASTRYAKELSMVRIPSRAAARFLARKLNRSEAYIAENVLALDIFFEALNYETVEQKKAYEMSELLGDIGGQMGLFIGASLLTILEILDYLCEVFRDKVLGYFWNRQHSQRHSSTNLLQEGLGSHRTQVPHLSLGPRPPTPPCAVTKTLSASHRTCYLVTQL
From the text: as §2

| Molecule | IC50 for the inhibition of acid induced ASIC1a-mediated calcium influx, FLIPR-based assay [1] | binding result [2] | binding result [3] | binding to the hASIC3a isoform [4] |
| --- | --- | --- | --- | --- |
| B1 | 2.61 nM | binds | binds |  |
| B2 |  |  |  | no detectable binding |
| B3 |  |  |  | no detectable binding |
| B4 |  |  |  | no detectable binding |
| B5 |  |  |  | no detectable binding |
| B6 |  |  |  | no detectable binding |
| B7 |  | binds | binds |  |
| B8 | 2.24 nM | binds | binds |  |
